assay: soluble fraction after stress (log2 fold change); higher = more stays soluble; pooled small domains, quantitative proteomics; settings: stress: pH 4
In short: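 Custom libraries of small protein domains were pooled and exposed to pH 4. High-throughput quantitative proteomics then measured the log2 fold change in the amount of each domain still soluble, with higher values meaning more stayed soluble. This soluble-fraction fold change stands for aggregation propensity.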

Going from “HMPVSDLQSALRNTLSKGDATDPAFRQRVYRAAMDALERATGSESDPQRRSEQKQRLIAVIRDMEASYRR” to “HMPVTKSARQSRIGELIAREPVRSQSELAARLADDGIVVSQGTLSKDLLELGAVRVRTSSGELAYALL”, the “soluble fraction (log2)” value falls from 0.101 to -0.258.

First: HMPWLIAVTVDGVNLPRFLRRAGEMGLLLTGVRIRGKHLSAFAREDDVPPLRMMAENGGWRFSVGN
Second: HMPYEHQRAVGALIRRLREQQGWSQRALADWVHMDQSAVSRVETGQRSVTAEELGRFADALHVSTDALVR
The “soluble fraction (log2)” value of the first is lower: -0.302 for the first, 0.059 for the second.

Compared with “HMPYFLKQSNTRSKGLYLQIYHSFYVPGKGSRNKSYKAIGYVSELIKNGIEDPITYAKNLVDELNNNSSTP”, “HMPYPSPADLARMDELIAWVKDEGRLPRDRSGQRSERSMARWLAARRREAAEGTLDPAYRDGLAQVPGWR” is lower in “soluble fraction (log2)” value: 0.226 for the first, -0.304 for the second.

First: HMPYSAAVTFLDDAKQPMVNYNYRLIAENGIEVSGITDEFGKTQPIQTDQREKVDLYIADLPN
Second: HMQAALEVQASAGVLAPVPPDQRQALLDTLAQDPRPGYQHEAGRVYGFPFGGFEVRFTVSDGLLTVLSAYK
The “soluble fraction (log2)” value of the first is higher: -0.37 for the first, -1.16 for the second.

First: HMQAATQVNIVGLFSNKAVVIINGGKPKTLSVGQTSEGVKLLAADSQTATLQIEGKTQQLGMGQAASVGG
Second: HMQAESLTVVRSAELKADRFLDAATLQTLQTGQVVESLRTESGWVQVRIAGQQGWVRAMNVKGA
The “soluble fraction (log2)” value of the first is higher: 0.107 for the first, -0.569 for the second.

Compared with “HMQAITVNNEGKIFLNTIPVTLEELSSKLESLKSSTPEFPVVIRGDSGSQYQGIMDVLNVVGRLGITQIGL”, “HMQAKDVEVPDYVGKSFVSIKENNPNDFKFEVKSEYDESKEMGVILDQEPKGGSMKVKSGSTITVTV” is higher in “soluble fraction (log2)” value: -1.08 for the first, 0.0655 for the second.

First: HMQASPADLLSDRELEVFQLTGEWKTTRQIAQELHLSVKTIEYYREQIKRKLNLKSAAELTQHATAWVQRG
Second: HMQDAVASEKIQLMSEALHARDTGDLLLAKEKVEKLIALAPNDKNIQALLLTINQSIEDKGL
The “soluble fraction (log2)” value of the first is higher: ≥ 0.43 for the first, -0.0958 for the second.

First: HMQDIDIVDLKRISELIYQKYNYDFRNYAMSSFKRRVQRIIELKKLTVDGLIKRLNDTPSFINEFLDELTV
Second: HMQDNLKKYMDKLSQRDAELIVYKYLWNMSEKEISEMFHIKQEQVHVYVGRAKKRLFKIIKKEME
The “soluble fraction (log2)” value of the first is lower: -0.2 for the first, 0.111 for the second.

Compared with “HMQDRDKNIEEGRQLVLHEMDRLDLVDEPLHDVARQLNMKAVEDMFAAVGAGDLRLGQIIHQLLKQADTN”, “HMQDSIYYAQYRINIRNMPSSEGMVISRASVGEALEVLDWQEQWSKVRKQSGVEGYVASRLLTK” is higher in “soluble fraction (log2)” value: -1.11 for the first, -0.64 for the second.

Compared with “HMQDTIDLVIQVNGKLRGQMNVPKDTDRATIEQLAINLENVQKIVAGNAIKKIIIVPGRLINIVVSKNL”, “HMQDTYQVKLLTNLNIRKSPNGTIVQKGGAKKGIIYTIVETSGTWGRLKSNAGWISVSDKYVTK” is higher in “soluble fraction (log2)” value: -0.209 for the first, 0.102 for the second.

“HMQDVKRYLVNSNQLNVRTGPGKEFEISESLNKGDAVTLLHKESNGWWEVITSTGQGYVYSSMLTKDPW” and “HMQDVVERIKKYKQLFSITSEELSKRSGIPLGTLNKILSSSTKSIKTETLAAIAKGLDVSVSDLVGREK” are within 0.2 log units of each other in “soluble fraction (log2)” value: 0.0322 for the first, -0.0189 for the second.

“HMQEAGKWLKKLRTERKITLEQLSKKTGLSVGFLSQFERGLTSIAIDTLEKIAAVFNVTIDYFISP” and “HMQEEFVAPDVKDGAIVLHKAFGEGTVTKIDKAQKHIRVTFGVGEKTFIFPDAFKQGFLRMKG” are within 0.2 log units of each other in “soluble fraction (log2)” value: 0.22 for the first, 0.222 for the second.

Compared with “HMQEERLTFDTLLGISGIGPRLALAVLSRFTPGSLAAAVDAGDTKAFSAVPGVGNRTASRIILELKGKL”, “HMQEGPGLVPDFRGQTMREVLRGGQSLGVRVAVDGTGLAVAQTPEPGSPLNKVSQVTVSFRPP” is higher in “soluble fraction (log2)” value: -0.238 for the first, 0.22 for the second.

Going from “HMQEINLIGVTGNDLERSALVKLLDGEIIKLSVGDNLNGGRVVDISAVTLTYLKSGQSITLKLPK” to “HMQELGVISEGKYNIELNMVSWNDREPKYDIRSWAPDHSRMGKGISLTEEEMERLVELWNTRNE”, the “soluble fraction (log2)” value falls from 0.116 to -0.802.

From the domain aggregation screens of Martell et al. (2025)
